{"source": "patent US11834499", "about": "(University of California, dated 2023)", "key": {"[1]": {"target": "T1, human Claudin-18.2 (CLDN18.2) (human)", "T1 construct": "On cells: fused to GFP in engineered HEK293T cells (clone C12), endogenous in HUPT4 and SNU601 cells; also called human CLDN18.2", "assay": "flow cytometry; HUPT4 over M202 [Cont.]", "method": "(§1) The samples were then measured by Intellicyt® iQue Advanced Flow Cytometry Platform."}, "[2]": {"target": "T1, human Claudin-18.2 (CLDN18.2)", "assay": "flow cytometry; HEK293T CLDN18.2 over HEK293T parental [Cont.]", "method": "as §1"}, "[3]": {"target": "T1, human Claudin-18.2 (CLDN18.2)", "assay": "KinExA, cell-based; HUPT4, Versene; Error% 3.90; 95% CI 0.28nM - 1.32nM; equilibrium curves 1nM, 20nM", "method": "(§2) For each KD measurement, in general, at least two antibody concentration curves were prepared using the same batch of cells (same passage) to avoid changes in expression level from passage to passage. Briefly, either HEK293T CLDN18.2-mGFP C12 cells (engineered overexpression cell line) or HUPT4 cells (native positive cell line) were detached using Versene. Cells were then equilibrated in different concentrations of the antibody solutions, respectively, in 2% FBS/DMEM or 2% FBS/RPMI at 4° C. overnight. Cells concentrations started with 1.8 ×10^7 cells/ml and 2-fold serial dilution was performed to 10 points. In addition, antibody solution only (Signal 100%) and nonspecific binding (NSB) buffer only were included in each curve. Next day, spin the cells at 1500 rpm for 10 mins and saved the supernatant for measurement. […] The KD and antigen expression level were calculated using two antibody curves analyzed by n-curve analysis."}, "[4]": {"target": "T1, human Claudin-18.2 (CLDN18.2)", "assay": "KinExA, cell-based; HEK293T-CLDN18.2-mGFP C12, Versene; Error% 7.19; 95% CI 0.43nM - 6.90nM; equilibrium curves 500pM and 10nM", "method": "as §2"}}, "data": [{"binder": "02-0358-h5 (antibody, V domains shown, Humanized IgG) VH: EVQLVESGGGLVQPGGSLRLSCAVSGFTFSSFGMHWVRQAPGKGLEWVAYISSGTTNIYYADSVKGRFTVSRDNAKNSLYLQMNSLRAEDTAVYYCVRSGYYGNSLDYWGQGTLVTVSS VL: DIVMTQSPDSLAVSLGERVTMNCKSSQSLFSSGNQRNYLTWYQQKPGQPPKLLIYWASTRESGVPDRFSGSGSGTDFTLTISSVQAEDVAVYYCQNVYIYPLTFGQGTKLEIK", "values": [{"measurement": "ratio native", "setting": "[1]", "result": 111}, {"measurement": "ratio OE", "setting": "[2]", "result": 574}, {"measurement": "Kd", "setting": "[3]", "result": 0.67, "unit": "nM"}, {"measurement": "Kd", "setting": "[4]", "result": 1.81, "unit": "nM"}]}]}
